# Assay results reported in patent US20180208655A1 (VENTANA MEDICAL SYSTEMS, published 2018).
# T1: human GPNMB (transmembrane glycoprotein NMB) (human, UniProt Q14956 23-572)
# T1 construct: Endogenous GPNMB in human FFPE tissues and cells (IHC), A375 cell lysate (Western blot) and A375 cells (flow cytometry)
# T1 sequence: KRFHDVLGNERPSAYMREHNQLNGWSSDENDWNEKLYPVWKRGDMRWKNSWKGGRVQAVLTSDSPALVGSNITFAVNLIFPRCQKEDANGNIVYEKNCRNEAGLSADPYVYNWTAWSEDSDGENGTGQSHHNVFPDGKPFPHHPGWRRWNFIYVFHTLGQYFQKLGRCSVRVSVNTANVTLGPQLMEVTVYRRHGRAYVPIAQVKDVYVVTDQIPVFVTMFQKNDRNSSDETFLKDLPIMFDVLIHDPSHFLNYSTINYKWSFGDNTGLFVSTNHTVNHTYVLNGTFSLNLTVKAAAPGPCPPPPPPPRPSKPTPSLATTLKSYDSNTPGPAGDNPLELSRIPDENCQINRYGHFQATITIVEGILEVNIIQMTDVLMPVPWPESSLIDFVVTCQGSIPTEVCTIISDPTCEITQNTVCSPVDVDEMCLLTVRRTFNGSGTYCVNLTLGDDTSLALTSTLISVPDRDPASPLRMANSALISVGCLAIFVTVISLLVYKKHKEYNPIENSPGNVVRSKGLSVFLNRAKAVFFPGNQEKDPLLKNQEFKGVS
# Target: T1, human GPNMB (transmembrane glycoprotein …)
# Experiment: IHC screening of recombinantly expressed clones (after ELISA screening on the GPNMB antigen)
binder,measurement,value
"rabbit anti-human GPNMB monoclonal antibody (SP299) (antibody, V domains shown, also called anti-GPNMB antibody SP299; Anti-GPNMB monoclonal antibody (SP299)) VH: QSLEESGGGLVKPGGTLTLICTVSGIDLSTYGVIWVRQAPREGLEWIGFITRSGTTDYAAWANGRFTISKTSTTVDLKIASLTAADTATYFCARGGYRFNLWGHGTLVTVSS VL: DPVMTQTPASVSEPVGGTVTIKCQASQSIYSYLAWYQQKPGQPPKLLIYKASSLESGVPSRLSGSGSGTEFTLTISDLECADAATYYCQGGYISTTVSFGYGFGGGTEVVVK",binding result,binds
